Measurements as given in patent US8673848 (Novartis, dated 2014).
Bridges are numbered along the chain shown (N, C = ends). [ ]: non-standard residue; d: D form. Bip = N[C@@H](Cc1ccc(-c2ccccc2)cc1)C(=O)O; 3Pal = N[C@@H](Cc1cccnc1)C(=O)O; pGlu = O=C1CC[C@@H](C(=O)O)N1; hCys = N[C@@H](CCS)C(=O)O; Nle = CCCC[C@H](N)C(=O)O

T1: human APJ receptor (hAPJ) (human, UniProt P35414 1-380)
T1 sequence (looked up): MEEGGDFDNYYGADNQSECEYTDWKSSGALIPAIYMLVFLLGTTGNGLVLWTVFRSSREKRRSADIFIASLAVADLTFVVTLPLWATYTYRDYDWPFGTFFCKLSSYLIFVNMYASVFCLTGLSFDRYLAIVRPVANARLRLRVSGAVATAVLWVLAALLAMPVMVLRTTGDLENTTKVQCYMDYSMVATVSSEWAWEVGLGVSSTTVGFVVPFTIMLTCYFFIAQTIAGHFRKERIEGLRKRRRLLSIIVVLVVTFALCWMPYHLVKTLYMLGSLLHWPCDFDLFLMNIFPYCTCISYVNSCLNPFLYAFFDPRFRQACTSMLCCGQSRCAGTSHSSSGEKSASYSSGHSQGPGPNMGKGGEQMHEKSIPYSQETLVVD

B1: Example 53: pE-R-P-R-L-c-H-K-G-P-Nle-C-F-OH (peptide)
peptide: [pGlu]RPRL[dC]HKGP[Nle]CF-OH
modifications: disulfide 6-12
SMILES: CCCC[C@@H]1NC(=O)[C@@H]2CCCN2C(=O)CNC(=O)[C@H](CCCCN)NC(=O)[C@H](Cc2c[nH]cn2)NC(=O)[C@H](NC(=O)[C@H](CC(C)C)NC(=O)[C@H](CCCNC(=N)N)NC(=O)[C@@H]2CCCN2C(=O)[C@H](CCCNC(=N)N)NC(=O)[C@@H]2CCC(=O)N2)CSSC[C@@H](C(=O)N[C@@H](Cc2ccccc2)C(=O)O)NC1=O
B2: Example 43: pE-R-P-R-L-C-E-K-G-P-Nle-C-F-OH (peptide)
peptide: [pGlu]RPRLCEKGP[Nle]CF-OH
modifications: disulfide 6-12
SMILES: CCCC[C@@H]1NC(=O)[C@@H]2CCCN2C(=O)CNC(=O)[C@H](CCCCN)NC(=O)[C@H](CCC(=O)O)NC(=O)[C@@H](NC(=O)[C@H](CC(C)C)NC(=O)[C@H](CCCNC(=N)N)NC(=O)[C@@H]2CCCN2C(=O)[C@H](CCCNC(=N)N)NC(=O)[C@@H]2CCC(=O)N2)CSSC[C@@H](C(=O)N[C@@H](Cc2ccccc2)C(=O)O)NC1=O
B3: Example 49: pE-R-P-R-L-C-H-K-G-P-Nle-C-E-OH (peptide)
peptide: [pGlu]RPRLCHKGP[Nle]CE-OH
modifications: disulfide 6-12
SMILES: CCCC[C@@H]1NC(=O)[C@@H]2CCCN2C(=O)CNC(=O)[C@H](CCCCN)NC(=O)[C@H](Cc2c[nH]cn2)NC(=O)[C@@H](NC(=O)[C@H](CC(C)C)NC(=O)[C@H](CCCNC(=N)N)NC(=O)[C@@H]2CCCN2C(=O)[C@H](CCCNC(=N)N)NC(=O)[C@@H]2CCC(=O)N2)CSSC[C@@H](C(=O)N[C@@H](CCC(=O)O)C(=O)O)NC1=O
B4: Example 51: pE-R-P-R-L-C-H-K-G-P-Nle-hC-F-OH (peptide)
peptide: [pGlu]RPRLCHKGP[Nle][hCys]F-OH
modifications: disulfide 6-12
SMILES: CCCC[C@@H]1NC(=O)[C@@H]2CCCN2C(=O)CNC(=O)[C@H](CCCCN)NC(=O)[C@H](Cc2c[nH]cn2)NC(=O)[C@@H](NC(=O)[C@H](CC(C)C)NC(=O)[C@H](CCCNC(=N)N)NC(=O)[C@@H]2CCCN2C(=O)[C@H](CCCNC(=N)N)NC(=O)[C@@H]2CCC(=O)N2)CSSCC[C@@H](C(=O)N[C@@H](Cc2ccccc2)C(=O)O)NC1=O
B5: Example 45: pE-R-P-R-L-C-H-K-R-P-Nle-C-F-OH (peptide)
peptide: [pGlu]RPRLCHKRP[Nle]CF-OH
modifications: disulfide 6-12
SMILES: CCCC[C@@H]1NC(=O)[C@@H]2CCCN2C(=O)[C@H](CCCNC(=N)N)NC(=O)[C@H](CCCCN)NC(=O)[C@H](Cc2c[nH]cn2)NC(=O)[C@@H](NC(=O)[C@H](CC(C)C)NC(=O)[C@H](CCCNC(=N)N)NC(=O)[C@@H]2CCCN2C(=O)[C@H](CCCNC(=N)N)NC(=O)[C@@H]2CCC(=O)N2)CSSC[C@@H](C(=O)N[C@@H](Cc2ccccc2)C(=O)O)NC1=O
B6: Example 41: pE-R-P-R-(4-PhF)-C-H-K-G-P-Nle-C-F-OH (peptide)
peptide: [pGlu]RPR[Bip]CHKGP[Nle]CF-OH
modifications: disulfide 6-12
SMILES: CCCC[C@@H]1NC(=O)[C@@H]2CCCN2C(=O)CNC(=O)[C@H](CCCCN)NC(=O)[C@H](Cc2c[nH]cn2)NC(=O)[C@@H](NC(=O)[C@H](Cc2ccc(-c3ccccc3)cc2)NC(=O)[C@H](CCCNC(=N)N)NC(=O)[C@@H]2CCCN2C(=O)[C@H](CCCNC(=N)N)NC(=O)[C@@H]2CCC(=O)N2)CSSC[C@@H](C(=O)N[C@@H](Cc2ccccc2)C(=O)O)NC1=O
B7: Example 48: pE-R-P-R-L-C-H-K-G-P-Nle-C-H-OH (peptide)
peptide: [pGlu]RPRLCHKGP[Nle]CH-OH
modifications: disulfide 6-12
SMILES: CCCC[C@@H]1NC(=O)[C@@H]2CCCN2C(=O)CNC(=O)[C@H](CCCCN)NC(=O)[C@H](Cc2c[nH]cn2)NC(=O)[C@@H](NC(=O)[C@H](CC(C)C)NC(=O)[C@H](CCCNC(=N)N)NC(=O)[C@@H]2CCCN2C(=O)[C@H](CCCNC(=N)N)NC(=O)[C@@H]2CCC(=O)N2)CSSC[C@@H](C(=O)N[C@@H](Cc2c[nH]cn2)C(=O)O)NC1=O
B8: Example 44: pE-R-P-R-L-C-H-K-L-P-Nle-C-F-OH (peptide)
peptide: [pGlu]RPRLCHKLP[Nle]CF-OH
modifications: disulfide 6-12
SMILES: CCCC[C@@H]1NC(=O)[C@@H]2CCCN2C(=O)[C@H](CC(C)C)NC(=O)[C@H](CCCCN)NC(=O)[C@H](Cc2c[nH]cn2)NC(=O)[C@@H](NC(=O)[C@H](CC(C)C)NC(=O)[C@H](CCCNC(=N)N)NC(=O)[C@@H]2CCCN2C(=O)[C@H](CCCNC(=N)N)NC(=O)[C@@H]2CCC(=O)N2)CSSC[C@@H](C(=O)N[C@@H](Cc2ccccc2)C(=O)O)NC1=O
B9: Example 52: pE-R-P-R-L-hC-H-K-G-P-Nle-hC-F-OH (peptide)
peptide: [pGlu]RPRL[hCys]HKGP[Nle][hCys]F-OH
modifications: disulfide 6-12
SMILES: CCCC[C@@H]1NC(=O)[C@@H]2CCCN2C(=O)CNC(=O)[C@H](CCCCN)NC(=O)[C@H](Cc2c[nH]cn2)NC(=O)[C@@H](NC(=O)[C@H](CC(C)C)NC(=O)[C@H](CCCNC(=N)N)NC(=O)[C@@H]2CCCN2C(=O)[C@H](CCCNC(=N)N)NC(=O)[C@@H]2CCC(=O)N2)CCSSCC[C@@H](C(=O)N[C@@H](Cc2ccccc2)C(=O)O)NC1=O
B10: Example 47: pE-R-P-R-L-C-H-K-G-P-(3-PyA)-C-F-OH (peptide)
peptide: [pGlu]RPRLCHKGP[3Pal]CF-OH
modifications: disulfide 6-12
SMILES: CC(C)C[C@H](NC(=O)[C@H](CCCNC(=N)N)NC(=O)[C@@H]1CCCN1C(=O)[C@H](CCCNC(=N)N)NC(=O)[C@@H]1CCC(=O)N1)C(=O)N[C@H]1CSSC[C@@H](C(=O)N[C@@H](Cc2ccccc2)C(=O)O)NC(=O)[C@H](Cc2cccnc2)NC(=O)[C@@H]2CCCN2C(=O)CNC(=O)[C@H](CCCCN)NC(=O)[C@H](Cc2c[nH]cn2)NC1=O
B11: Example 50: pE-R-P-R-L-C-H-K-G-P-Nle-C-OH (peptide)
peptide: [pGlu]RPRLCHKGP[Nle]C-OH
modifications: disulfide 6-12
SMILES: CCCC[C@@H]1NC(=O)[C@@H]2CCCN2C(=O)CNC(=O)[C@H](CCCCN)NC(=O)[C@H](Cc2c[nH]cn2)NC(=O)[C@@H](NC(=O)[C@H](CC(C)C)NC(=O)[C@H](CCCNC(=N)N)NC(=O)[C@@H]2CCCN2C(=O)[C@H](CCCNC(=N)N)NC(=O)[C@@H]2CCC(=O)N2)CSSC[C@@H](C(=O)O)NC1=O
B12: Example 42: pE-R-P-R-D-C-H-K-G-P-Nle-C-F-OH (peptide)
peptide: [pGlu]RPRDCHKGP[Nle]CF-OH
modifications: disulfide 6-12
SMILES: CCCC[C@@H]1NC(=O)[C@@H]2CCCN2C(=O)CNC(=O)[C@H](CCCCN)NC(=O)[C@H](Cc2c[nH]cn2)NC(=O)[C@@H](NC(=O)[C@H](CC(=O)O)NC(=O)[C@H](CCCNC(=N)N)NC(=O)[C@@H]2CCCN2C(=O)[C@H](CCCNC(=N)N)NC(=O)[C@@H]2CCC(=O)N2)CSSC[C@@H](C(=O)N[C@@H](Cc2ccccc2)C(=O)O)NC1=O

The binders below were run against T1, human APJ receptor (hAPJ) (assay: cell-based or functional assay).

Row | hAPJ Ca2+ Flux EC50 [nM] | Binder
1 | 21.2 | [pGlu]RPRLKFKGP[Nle]F (lactam 6-C) [Example 5: pE-R-P-R-L-K-F-K-G-P-Nle-F]
2 | 1.07 | B1
3 | 4.14 | B2
4 | 34.2 | B3
5 | 1.09 | B4
6 | 6.55 | B5
7 | 6.91 | B6
8 | 4.1 | B7
9 | 5.94 | B8
10 | 53.9 | B9
11 | 3.87 | [pGlu]RPRLCHKG[Pipecolic acid][Nle]CF-OH (disulfide 6-12) [Example 46: pE-R-P-R-L-C-H-K-G-(Pipecolic acid)-Nle-C-F-OH]
12 | 2.41 | B10
13 | 1.92 | B11
14 | 92.8 | B12
